Test results taken from US6531312.

T1: GST-Cdc25C, P30307
T1 chain: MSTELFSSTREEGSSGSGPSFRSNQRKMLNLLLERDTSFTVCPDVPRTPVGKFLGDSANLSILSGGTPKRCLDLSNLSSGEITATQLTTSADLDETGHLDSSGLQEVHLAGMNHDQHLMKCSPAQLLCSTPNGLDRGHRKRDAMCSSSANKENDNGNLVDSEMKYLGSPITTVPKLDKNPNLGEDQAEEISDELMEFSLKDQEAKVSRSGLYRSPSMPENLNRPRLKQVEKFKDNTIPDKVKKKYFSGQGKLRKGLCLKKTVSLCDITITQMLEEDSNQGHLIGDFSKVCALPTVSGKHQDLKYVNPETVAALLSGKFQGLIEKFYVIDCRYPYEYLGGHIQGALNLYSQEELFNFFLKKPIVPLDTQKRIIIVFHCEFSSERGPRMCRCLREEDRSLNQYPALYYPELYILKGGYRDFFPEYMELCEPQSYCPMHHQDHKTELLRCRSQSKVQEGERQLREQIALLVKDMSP


Tests used:
GST-Cdc25C, P30307 = target: T1, GST-Cdc25C, P30307

Sequence of 6his-Cdc2, P06493 (P06493 whole entry, looked up): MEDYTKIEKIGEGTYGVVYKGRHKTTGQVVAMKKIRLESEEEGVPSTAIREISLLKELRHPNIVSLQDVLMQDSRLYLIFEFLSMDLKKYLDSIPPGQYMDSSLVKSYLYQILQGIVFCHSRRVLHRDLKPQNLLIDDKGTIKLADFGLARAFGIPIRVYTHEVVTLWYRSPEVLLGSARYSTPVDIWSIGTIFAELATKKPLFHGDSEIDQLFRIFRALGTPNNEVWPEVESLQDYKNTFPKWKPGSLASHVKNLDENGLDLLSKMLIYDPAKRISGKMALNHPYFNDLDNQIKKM

| Protein | dephosphorylation of Cdc2 (gel-mobility analysis) (6his-Cdc2, P06493) | GST-Cdc25 phosphatase activity (loss of slower migrating phosphorylated forms of Cdc2 on gel) (GST-Cdc25C, P30307) | phosphorylation of GST-Cdc25 (32P ATP, SDS-PAGE, autoradiography) (GST-Cdc25C, P30307) |
| --- | --- | --- | --- |
| GST-Cdc25C (protein) MSTELFSSTREEGSSGSGPSFRSNQRKMLNLLLERDTSFTVCPDVPRTPVGKFLGDSANLSILSGGTPKRCLDLSNLSSGEITATQLTTSADLDETGHLDSSGLQEVHLAGMNHDQHLMKCSPAQLLCSTPNGLDRGHRKRDAMCSSSANKENDNGNLVDSEMKYLGSPITTVPKLDKNPNLGEDQAEEISDELMEFSLKDQEAKVSRSGLYRSPSMPENLNRPRLKQVEKFKDNTIPDKVKKKYFSGQGKLRKGLCLKKTVSLCDITITQMLEEDSNQGHLIGDFSKVCALPTVSGKHQDLKYVNPETVAALLSGKFQGLIEKFYVIDCRYPYEYLGGHIQGALNLYSQEELFNFFLKKPIVPLDTQKRIIIVFHCEFSSERGPRMCRCLREEDRSLNQYPALYYPELYILKGGYRDFFPEYMELCEPQSYCPMHHQDHKTELLRCRSQSKVQEGERQLREQIALLVKDMSP | GST-Cdc25 catalyses a reduction in the slower migrating phosphorylated forms of Cdc2 | – | – |
| 6his-Chk1 (protein) MAVPFVEDWDLVQTLGEGAYGEVQLAVNRVTEEAVAVKIVDMKRAVDCPENIKKEICINKMLNHENVVKFYGHRREGNIQYLFLEYCSGGELFDRIEPDIGMPEPDAQRFFHQLMAGVVYLHGIGITHRDIKPENLLLDERDNLKISDFGLATVFRYNNRERLLNKMCGTLPYVAPELLKRREFHAEPVDVWSCGIVLTAMLAGELPWDQPSDSCQEYSDWKEKKTYLNPWKKIDSAPLALLHKILVENPSARITIPDIKKDRWYNKPLKKGAKRPRVTSGGVSESPSGFSKHIQSNLDFSPVNSASSEENVKYSSSQPEPRTGLSLWDTSPSYIDKLVQGISFSQPTCPDHMLLNSQLLGTPGSSQNPWQRLVKRMTRFFTKLDADKSYQCLKETCEKLGYQWKKSCMNQVTISTTDRRNNKLIFKVNLLEMDDKILVDFRLSKGDGLEFKRHFLKIKGKLIDIVSSQKIWLPAT | – | Prior phosphorylation of GST-Cdc25 by 6his-Chk1 leads to a dosedependent reduction in GST-Cdc25 activity | GST-Cdc25 was phosphorylated by 6his-Chk1 and by 6his-hCDS1 |
